Patent publication US4839466A, “Insulin activity messengers” (The Rockefeller University, priority 1987, dated 1989)

Experiments:
PI-glycan PLC = assay: Effects of cations and sulfhydryl reagents on PI-glycan PLC (mfVSG hydrolysis); assay type: biochemical, rat; conditions: 25 nM mfVSG, 2 hr at 37° C.; for Activity (dpm/2 hr): no addition 3970
Protocol: Assay of PI-glycan PLC Activity. Enzyme activity was assayed at 37° C. in a final volume of 1 ml with [^3 H]myristate-labeled C-terminal glycopeptide in 25 mM Tris, pH 7.4, with 0.1% NP-40. The reaction was terminated after 1 hr. by extraction with 1 ml toluene. Organic and aqueous phases were separated by brief centrifugation at 100 ×g and the organic phase was taken to dryness in vacuo, redissolved in 40 ul of chloroform:methanol (2:1) containing 5 ug dimyristylglycerol, and spotted on a Silica G TLC plate which had been preactivated by baking at 125° C. for 1-2 hr. The plate was developed twice in petroleum ether:diethyl ether:acetic acid (70:30:2) and then stained with iodine vapor to localize DAG. The DAG region was scraped and counted. Alternatively, 0.5 ml of the organic phase was taken directly for liquid scintillation counting.
Samples from each stage of the purification were incubated in 1 ml with 25 nM [3H]mfVSG for 2 hr at 37° C. and then extracted twice with 1 ml chloroform:methanol (200:1). The organic phases were taken to dryness and analyzed by TLC as described under Experimental Procedures. Each assay was performed in duplicate and was consistant within 10%.
Purified PI-glycan PLC was incubated with 25 nM mfVSG in the presence of the indicated reagents for 2 hr at 37° C. Enzyme activity was assayed as described for Table VIII. All assays were performed in duplicate variance was less than 10%.

BC3 Hl cells = assay: Diacylglycerol and phosphatidic acid production in labeled BC3 Hl myocytes; assay type: cell-based, murine
Protocol: FIG. 12--Time Course of Diacylglycerol and Phosphatidic Acid Production in Response to Insulin. Myocytes were incubated for 20 hrs. in serum free DMEM with [9,10^3 H]myristic acid (New England Nuclear), complexed 1:1 to bovine serum albumin. Insulin was added to cells in fresh media for the designated intervals, and reactions were stopped by removal of media and addition of 1 ml chloroform/methanol/1N HCl (200:100:1). 0.6ml H2 O was added and upper aqueous phases were discarded following centrifugation at 500×g for 5 minutes. The lower, organic phases were dried under N2 and resuspended in 1 ml diethyl ether followed by addition of 1 […]. The upper ether phase was aspirated and the lower phase reextracted with 1 ml diethyl ether. The combined ether phases, containing diacylglycerol, were dried under N2, resuspended in chloroform and spotted on silica gel G plates which were preactivated at 60° C. for 1 hr. Plates were twice developed in petroleum ether/diethyl ether/glacial acetic acid (70:30:2). Five ug of unlabeled dimyristoylglycerol were added to each sample. Spots were visualized by iodine staining. To the lower aqueous phases from the ether extraction were added 1 ml of chloroform/methanol (2:1). Following centrifugation, the resulting upper aqueous phases were discarded and the lower organic phases dried under N2, resuspended in chloroform/methanol/H2 O (9:7:2) and spotted on "soft plus" silica gel plates. These were developed in chloroform/pyridine/70% formic acid (50:30:7), and phosphatidic acid was identified by an iodine stained standard. Lipids were scraped and radioactivity determined in a liquid scintillation counter.
BC3 Hl cells were cultured on collagen coated multiwell plates or petri dishes in Dulbecco's minimal essential medium (DMEM) supplemented with 20% Nu serum or 10% fetal calf serum. Cells were grown to maximal density and confluence, at which time they become responsive to insulin. Radiolabeled precursors were added for 20 hrs. in serum-free medium. [^3 H]Myristic and arachidonic acids were complexed 1:1 to bovine serum albumin prior to addition.
Following preincubations with the appropriate isotopes, cells were resuspended in DMEM without serum and treated with 10 nM insulin at the designated intervals. Reactions were terminated by the addition of 1 ml chloroform/methanol/1N HCl (200:100:1), followed by 0.5 ml 10 mM formic acid. Following centrifugation at 500 x g for 5 min., the upper phase was discarded. For phospholipid analyses, the lower, organic phase was dried under N2, resuspended in chloroform/methanol/H2 O (9:7:2) and spotted on oxalate impregnated silica gel G plates. These were sequentially developed in chloroform/acetone/methanol/glacial acidic acid/H2 O (10:4:2:2:1) and chloroform/methanol/4N NH4 OH (45:35:10). One cm regions were scraped and eluted with chloroform/methanol (2:1) and counted. Phosphoinositide standards were identified by iodine staining.
For analysis of neutral lipids, the chloroform/methanol organic phases were dried under N2 and resuspended in 1 ml diethyl ether followed by addition of 1 ml 50 mM formic acid. The upper ether phase was aspirated and the lower aqueous phase was reextracted with 1 ml diethyl ether. The pooled ether phases were dried under N2, resuspended in chloroform and spotted on silica gel G plates which were preactiviated at 60° C. for 1 hr. Plates were twice developed in petroleum ether/diethyl ether/glacial acetic acid (70:30:2). Five ug of unlabeled dimyristoyl glycerol, myristic acid and monomyristoyl glycerol were added as carriers to each sample.

[1] = PI-PLC treatment of lipids extracted from labeled BC3 Hl cells, TLC; assay type: biochemical, murine; conditions: PI-PLC 30 min.
Protocol: FIG. 8--SAX HPLC of Radiolabeled Mediators Produced by PI-PLC. Cells were prelabeled as described in FIG. 7, extracted in chloroform/methanol/1N HCl (200:100:1) and centrifuged at 1000 x g for 10 min. The supernatant was dried under N2 and resuspended in 1 mil of 50 mM ammonium bicarbonate, pH 7.4. These solutions were treated with 0.1 ug/ml PI-PLC from S. aureus for 30 min. at 37° C. Reactions were terminated by reextraction with 1 ml of chloroform/methanol/1N HCl (200:100:1) and aqueous and organic phases separated. The aqueous phases were then purified as described in FIG. 7 and chromatographed on SAX HPLC column, eluted as described.
FIG. 10--Thin Layer Chromatography of the Radiolabeled Precursor After PI-PLC Treatment. Cells were labeled, extracted, treated with or without PI-PLC and reextracted as described in FIG. 8. Organic phases were chromatographed on thin layer plates as detailed in FIG. 9.

Pyruvate Dehydrogenase = assay: Generation of an enzyme modulator from liver plasma membranes, pyruvate dehydrogenase readout; assay type: biochemical, rat
Protocol: (§1) Purification of the Enzyme Modulator. Bovine liver particulate fraction was prepared as described previously [Saltiel A. R., (1984) "Preparation and Characterization of Putative Insulin Mediators from Liver", METHODS IN DIABETES […], eds. J. Larner, S. Pohl, I:73]. Solutions were incubated in 5 mM ammonium bicarbonate, pH 7.4 with 10 nM insulin or 1 ug/ml PI-PLC as described in the figure legends. Following incubation, solutions were acidified to pH 4.0 and centrifuged at 35,000 x g for 20 minutes. Resulting supernatants were extracted with chloroform/methanol (2:1). The upper aqueous phase was aspirated and methanol was evaporated. Enzyme modulating activities were purified as described in Publication No. 6 listed earlier herein. Briefly, the extract was chromatographed on DEAE-Cellulose and eluted with 0.25M triethylamine (TEA)-formate, pH 3.75. This was followed by chromatography on C-18 reversed phase resin, in the same buffer, followed by Dowex 50W X-4 in 50 mM TEA-formate, pH 3.0. The resulting eluate was lyophilized, resuspended in 50 mM TEA-formate, pH 4.5 and sequentially chromatographed on QAE-Sephadex, SAX HPLC and a P-2 gel filtration column. Only the cyclic inositol phosphate derivative residing in Peak I was examined.
(§2) Enzyme Assays. The low Km cAMP PDE was assayed in a rat adipocyte particulate fraction as previously described [Saltiel, A. R., Steigerwalt,R. W., (1986) "Purification of Putative Insulin-Sensitive cAMP Phosphodiesterase or its Catalytic Domain From Rat Adipocytes", DIABETES, 35:698] and as later modified in Publication No. 6. Activity was linear throughout 20 min. and proportional to protein concentration. Only the low Km species of the enzyme was present in this fraction. PDH activity was assayed in liver mitoplasts after preincubation with ATP as previously described [Saltiel et al., (1982) PROC. NATL. ACAD. SCI. U.S.A., 79:3513.]. Adenylate cyclase activity was also assayed in purified adipocyte plasma membranes. For all enzyme assays, variability was less than 5%.
(§3) Liver membranes were treated with or without 10 nM insulin or 1 ug/ml PI-PLC for 10 min. at 37° C. Following cetrifugation, the supernatants were extracted and purified up to and including the SAX HPLC step. Purified extracts were added to enzyme assays at a final dilution of 1:10. Enzyme activities were assayed with no additions or after addition of purified extracts from control, insulin or PIPPLC treated membrane. Percent of basal activity is expressed in parentheses. ^1 expressed as pmoles/mg protein-min. ^2 expressed as nmoles/mg protein-min.

cAMP phosphodiesterase [2] = assay: Generation of PDE messenger from liver membranes by insulin or PI-PLC; extracts assayed on cAMP phosphodiesterase; assay type: biochemical, rat
Protocol: These were generated from bovine liver particulate fractions by a modification of previously described methods. Particulate fraction was prepared from 100 g of bovine liver, and suspended in […] ammonium bicarbonate, pH 7.4. (Buffer A) at a final concentration of 2-4 mg protein/ml. This solution was incubated with […] for 10 min at 37° C., acidified to pH 4.0 with formic acid and sedimented at 45,000 g for 20 min. An equal volume of chloroform/methanol (2:1) was added to the supernatant, and the upper phase was aspirated and methanol was evaporated.
In the tests the results of which are tabulated above, liver membranes were treated as indicated for 10 min at 37° C., centrifuged and supernatants were extracted and purified up to and including the Dowex 50WX-4 step as described earlier herein under "Experimental Frocedures".
Partially purified extracts were assayed for ability to modulate cAMP phosphodiesterase. Basal activity was 56.2 pmoles/mg protein^-1 -min^-1.

Adenylate Cyclase = assay: Generation of an enzyme modulator from liver plasma membranes, adenylate cyclase readout; assay type: biochemical, rat
Protocol: as §1, §2, §3

cAMP phosphodiesterase [3] = assay: Generation of an enzyme modulator from liver plasma membranes, cAMP phosphodiesterase readout; assay type: biochemical, rat
Protocol: as §1, §2, §3

[4] = cells incubated with [3H]arachidonic acid

With O=C(O)CN(CCOCCOCCN(CC(=O)O)CC(=O)O)CC(=O)O [EGTA] the “% control” value (PI-glycan PLC; addition at 100 uM) was 148 % control and the “Activity (dpm/2 hr)” value (PI-glycan PLC; addition at 100 uM) was 5900 dpm/2 hr.

With CNC[C@H](O)c1ccc(O)c(O)c1 [epinephrine] the “change in [3H]myristoyl diacylglycerol” value (BC3 Hl cells; [3H]myristate labeled cells) was “no significant change”, the “change in [3H]arachidonyl diacylglycerol” value (BC3 Hl cells; [4]) was “rapid increase” and the “time of maximal increase in [3H]arachidonyl diacylglycerol” value (BC3 Hl cells; [4]) was 1 min.

For OCCS [2-mercaptoethanol], the “% control” value (PI-glycan PLC; addition at 50 mM) was 190 % control and the “Activity (dpm/2 hr)” value (PI-glycan PLC; addition at 50 mM) was 7564 dpm/2 hr.

With [Cl][Hg][Cl] [HgCl2] the “% control” value (PI-glycan PLC; addition at 100 uM) was 17 % control and the “Activity (dpm/2 hr)” value (PI-glycan PLC; addition at 100 uM) was 677 dpm/2 hr.

B1: PI-PLC: purified phosphatidylinositol specific phospholipase C from S. aureus (protein, UniProt P45723 27-312, looked up)
1-phosphatidylinositol …: DGKHLTEINIPGSHDSGSFTLKDPVKSVWAKTQDKDYLTQMKSGVRFFDIRGRASADNMISVHHGMVYLHHELGKFLDDAKYYLSAYPNETIVMSMKKDYDSDSKVTKTFEEIFREYYYNNPQYQNLFYTGSNANPTLKETKGKIVLFNRMGGTYIKSGYGADTSGIQWADNATFETKINNGSLNLKVQDEYKDYYDKKVEAVKNLLAKAKTDSNKDNVYVNFLSVASGGSAFNSTYNYASHINPEIAKTIKANGKARTGWLIVDYAGYTWPGYDDIVSEIIDSNK
In the case of B1, the “decrease in [3H]glucosamine labeling of the precursor spot” value [1] is reported as 40%, the “decrease in [3H]inositol labeling of the precursor spot” value [1] is reported as 60% and the “depletion of PI” value [1] is reported as 50%. For the same molecule, the “Pyruvate Dehydrogenase, percent of basal activity” value (Pyruvate Dehydrogenase; as E43) was 296.6%, the “Pyruvate Dehydrogenase activity” value (Pyruvate Dehydrogenase; extract as E41, no addition 1.77±0.07, control membranes 2.45±0.20) was 5.25±0.40 nmoles/mg protein-min and the “stimulation/increase of production of PDE modulating activity from membranes” value (cAMP phosphodiesterase [2]; after partial purification, PI-PLC 1.0 ug/ml) was 6 fold. The “PDE Activity” value (cAMP phosphodiesterase [2]; extract of liver membranes treated 10 min at 37° C. (1.0 nM Insulin, PI-PLC), purified up to Dowex 50WX-4, basal 56.2, untreated membranes 78.5) was 191.3 pmol mg protein^-1 min^-1, the “Adenylate Cyclase, percent of basal activity” value (Adenylate Cyclase; as E45) was 25.0% and the “Adenylate Cyclase activity” value (Adenylate Cyclase; extract as E41, no addition 272±14, control membranes 210±4) was 68.7±7.6 pmoles/mg protein-min. The “cAMP Phosphodiesterase, percent of basal activity” value (cAMP phosphodiesterase [3]; as E41) was 311.1% and the “cAMP Phosphodiesterase activity” value (cAMP phosphodiesterase [3]; extract of liver membranes treated with 10 nM insulin or 1 ug/ml PI-PLC 10 min. 37° C., purified to SAX HPLC, dilution 1:10, no addition 61.7±4.2, control membranes 78.5±5.6) was 192±5 pmoles/mg protein-min.
